Laboratory results reported in patent US20220105179A1 (published 2022).

Target: NEUFcε (Arthrobacter urefaciens;mouse, UniProt P06336 99-421)
Test: BLI

B1: hFcεRIα (receptor)
chain: VPQKPKVSLNPPWNRIFKGENVTLTCNGNNFFEVSSTKWFHNGSLSEETNSSLNIVNAKFEDSGEYKCQHQQVNESEPVYLEVFSDWLLLQASAEVVMEGQPLFLRCHGWRNWDVYKVIYYKDGEALKYWYENHNISITNATVEDSGTYYCTGKVWQLDYESEPLNITVIKAPREKYWLQ
  Kd: < 1 pM
